Our source for the I50, ATPase activity of the RecA NPF values is patent US20060199768A1.

The target in the assay is RecA protein (E. coli).

On to RecA N-30 (peptide), for which the I50, ATPase activity of the RecA NPF came to 600 µM.
